From paper PMC3351156 (Nucleic Acids Research, 2012) come the findings set out here.

Changes are numbered by the printed parent chain. Where two headings read alike, the source gives them in different places. Non-standard residues stand in square brackets, D forms with d. No end group written: not given here. pT = C[C@@H](OP(=O)(O)O)[C@H](N)C(=O)O

Sequences and labels used below:
B1: MDC1^27–138 (MDC1 FHA domain, residues 27–138) (domain or fragment, UniProt Q14676 27-138, looked up)
chain: NVEPVGRLHIFSGAHGPEKDFPLHLGKNVVGRMPDCSVALPFPSISKQHAEIEILAWDKAPILRDCGSLNGTQILRPPKVLSPGVSHRLRDQELILFADLLCQYHRLDVSLP
B2: FHA domain of Xenopus tropicalis MDC1 (domain or fragment)
chain: NIIGRHTNCDVTLPAQSVSKKHAIIEVEADCHTLCDQGSLNKTRRGKAAI
B3: phosphopeptide MED(pT)QAID (pT4-8P) (peptide)
peptide: MED[pT]QAID
B4: pT4-MDC1^2–133 (T4-phosphorylated MDC1^2–133) (domain or fragment, UniProt Q14676 2-133, looked up)
chain: EDTQAIDWDVEEEEETEQSSESLRCNVEPVGRLHIFSGAHGPEKDFPLHLGKNVVGRMPDCSVALPFPSISKQHAEIEILAWDKAPILRDCGSLNGTQILRPPKVLSPGVSHRLRDQELILFADLLCQYHRL
modifications: phosphothreonine at 4
B5: pT4-MDC1^2–133-R58A (domain or fragment, UniProt Q14676 2-133, looked up)
chain: B4 chain with R57A
modifications: phosphothreonine at 4
B6: MDC1^2–133 (unphosphorylated) (domain or fragment, UniProt Q14676 2-133, looked up)
chain: B4 chain

Data set [1] has as its target Mutator 2 FHA domain (Drosophila melanogaster) (Drosophila melanogaster).
Data set [2] deals with the molecule itself. Put plainly: SEC.
Data set [3] deals with the molecule itself. Put plainly: SEC. This is another data set of the same source. (In general: SEC sorts molecules by how far they enter the pores of the column.)
For the next data set, the target named is T1, SMT3-MDC1^2–133-T98A (UniProt Q14676 2-133, T98A).
T1 sequence (looked up): B4 chain with T97A
Put plainly: ITC. For orientation: ITC needs no label: the signal is the heat of the interaction.

Data set [4] deals with B6. Put plainly: AUC.
Data set [5] concerns the target B1. As to the kind of experiment: ITC.
Data set [6] deals with the molecule itself. Put plainly: AUC.
Data set [7] concerns the molecule itself. Put plainly: SEC. This is another data set of the same source.
Data set [8] concerns the molecule itself. Put plainly: AUC. This is another data set of the same source.

As a reminder, the stoichiometry N is a count of units in the complex or per binding partner. In data set [1], “Mutator 2 FHA domain (Drosophila melanogaster) (domain or fragment)” yielded a stoichiometry N of 2.

As to B1, in the data set “SEC [2]”, the “stoichiometry N” value turned out to be 2.

Regarding B2, the “stoichiometry N” value in “SEC [3]” came out at 2.

Broadly, the Kd is the free concentration of one partner at which half of the binding sites on the other are occupied at equilibrium, for simple one-to-one binding. Read a low Kd as a tighter complex. With B3, in the data set with SMT3-MDC1^2–133-T98A, the “fold reduction of binding affinity against SMT3-MDC1^2–133” value was 7 fold. In addition, the Kd in data set [4] turned out to be 20 µM; in [5] it was 40 ± 3 µM.

B4 yielded a Kd in “AUC [6]” of 0.035 µM.

For the molecule B5, the binding result in the data set “SEC [7]” was “binds”.

Turning to B6, the Kd in “AUC [8]” amounted to 16 µM; in “AUC [6]”, 9.2 µM.
